Measured values as given in article PMC8816346 (Science Advances, 2022).

Molecular target: TOPBP1, purified recombinant (human, UniProt Q92547 1-1522)
Assay: pull-down

Chain of TOPBP1, purified recombinant (Q92547 whole entry): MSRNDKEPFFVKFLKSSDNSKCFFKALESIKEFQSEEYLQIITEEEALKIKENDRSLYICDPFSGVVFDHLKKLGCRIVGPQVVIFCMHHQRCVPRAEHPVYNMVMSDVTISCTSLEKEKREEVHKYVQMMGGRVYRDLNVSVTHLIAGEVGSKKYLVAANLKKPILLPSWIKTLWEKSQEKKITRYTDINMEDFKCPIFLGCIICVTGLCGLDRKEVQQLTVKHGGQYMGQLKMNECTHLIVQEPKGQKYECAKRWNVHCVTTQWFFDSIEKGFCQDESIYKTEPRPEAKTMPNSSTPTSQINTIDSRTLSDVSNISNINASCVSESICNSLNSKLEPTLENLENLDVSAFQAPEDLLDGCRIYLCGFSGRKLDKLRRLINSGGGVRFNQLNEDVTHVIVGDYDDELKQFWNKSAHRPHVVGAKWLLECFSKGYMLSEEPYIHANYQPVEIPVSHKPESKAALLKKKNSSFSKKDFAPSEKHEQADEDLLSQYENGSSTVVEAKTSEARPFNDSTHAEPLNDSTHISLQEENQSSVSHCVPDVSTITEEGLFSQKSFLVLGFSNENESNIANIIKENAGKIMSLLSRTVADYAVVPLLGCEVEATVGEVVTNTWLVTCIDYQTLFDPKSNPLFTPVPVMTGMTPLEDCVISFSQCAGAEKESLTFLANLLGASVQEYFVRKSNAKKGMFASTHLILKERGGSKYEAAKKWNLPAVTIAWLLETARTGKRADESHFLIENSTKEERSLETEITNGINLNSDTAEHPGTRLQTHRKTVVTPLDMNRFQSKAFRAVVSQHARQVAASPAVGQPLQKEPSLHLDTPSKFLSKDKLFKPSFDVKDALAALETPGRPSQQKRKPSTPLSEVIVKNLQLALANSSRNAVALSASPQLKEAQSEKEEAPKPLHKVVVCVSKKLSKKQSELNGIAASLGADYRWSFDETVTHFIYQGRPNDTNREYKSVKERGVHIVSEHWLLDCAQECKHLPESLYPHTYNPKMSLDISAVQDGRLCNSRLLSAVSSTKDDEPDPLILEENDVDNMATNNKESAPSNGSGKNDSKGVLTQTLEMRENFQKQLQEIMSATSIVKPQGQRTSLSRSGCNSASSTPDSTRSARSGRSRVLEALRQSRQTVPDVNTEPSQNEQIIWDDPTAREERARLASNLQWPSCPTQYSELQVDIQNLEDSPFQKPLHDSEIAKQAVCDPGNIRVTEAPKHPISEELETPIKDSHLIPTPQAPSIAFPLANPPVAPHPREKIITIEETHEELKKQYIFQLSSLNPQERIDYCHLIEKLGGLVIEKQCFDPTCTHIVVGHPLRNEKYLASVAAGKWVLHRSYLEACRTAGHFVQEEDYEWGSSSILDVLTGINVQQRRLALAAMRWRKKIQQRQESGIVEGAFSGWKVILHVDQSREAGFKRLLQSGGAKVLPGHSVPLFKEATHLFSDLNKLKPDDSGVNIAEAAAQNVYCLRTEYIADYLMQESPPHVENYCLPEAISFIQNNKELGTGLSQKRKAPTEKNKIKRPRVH

B1: BLM^λ (BLM^P dephosphorylated with λ-phosphatase) (natural protein)
chain: not shown
**Q.** Does B1 bind?
**A.** Result: binds
